Values quoted from earlier work, collected in article PMC10919381.
pKd: −log10 of the molar value. Where two headings read alike, the source gives them in different places.

Columns and labels:
[1] = target: CBP/p300 TAZ1 (Homo sapiens) (UniProt Q92793)
[2] = target: CBP/p300 TAZ1 (Homo sapiens) (UniProt Q92793); remark: listed apart in the source

Chain of UniProt Q92793 (Q92793 347-433): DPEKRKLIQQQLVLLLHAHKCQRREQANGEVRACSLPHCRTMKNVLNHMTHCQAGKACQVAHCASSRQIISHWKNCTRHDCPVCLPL

pKd [1]	pKd [2]	Substance
8.00	–	CITED2 (from UniProt Q99967)
–	8.00	HIF-1α (from UniProt Q16665)
